Laboratory results reported in patent US20260151494A1 (ARO BIOTHERAPEUTICS, published 2026).

How the values were obtained:
[1] = target: T1, human CD71 extracellular domain (human, UniProt P02786 89-760); experiment: primary ELISA; also: test concentration or dose not given here
T1 construct: also called hCD71; human CD71-ECD

[2] = target: T2, apical domain of cynomolgus CD71 (cynomolgus, UniProt A0A2K5X958 189-383); experiment: primary ELISA; also: test concentration or dose not given here
T2 construct: domain: apical domain; also called Cyno apical domain

[3] = target: T1, human CD71 extracellular domain; experiment: primary ELISA, signal ratio to HSA
[4] = target: T2, apical domain of cynomolgus CD71; experiment: primary ELISA, signal ratio to HSA
[5] = target: T3, human CD71 extracellular domain (human, UniProt P02786 89-760, biotinylated); experiment: primary ELISA; also: test concentration or dose not given here
T3 construct: also called hCD71; CD71-ECD

[6] = target: T4, apical domain of human CD71 (human, UniProt P02786 189-383, limits assumed); experiment: primary ELISA; also: test concentration or dose not given here
T4 construct: domain: apical domain; Screen 4 panned on human apical domains, the ELISA text says only 'apical domain'

[7] = target: T3, human CD71 extracellular domain; experiment: primary ELISA, RLU over HSA
[8] = target: T4, apical domain of human CD71; experiment: primary ELISA, RLU over HSA

T2 sequence (A0A2K5X958 entry or part of it): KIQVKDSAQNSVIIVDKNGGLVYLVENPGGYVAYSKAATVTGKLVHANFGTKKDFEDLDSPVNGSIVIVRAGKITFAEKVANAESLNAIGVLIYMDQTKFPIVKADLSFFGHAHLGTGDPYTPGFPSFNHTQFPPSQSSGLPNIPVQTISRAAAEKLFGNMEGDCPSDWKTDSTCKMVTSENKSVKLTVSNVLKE
T4 sequence (P02786 189-383 limits assumed): as the sequence (A0A2K5X958 entry or part of it) above, with G20R, D59Y, S60T, K104N, D106E, Q137R, K176R, N182S, S184N counted along it
T1 sequence (P02786 89-760): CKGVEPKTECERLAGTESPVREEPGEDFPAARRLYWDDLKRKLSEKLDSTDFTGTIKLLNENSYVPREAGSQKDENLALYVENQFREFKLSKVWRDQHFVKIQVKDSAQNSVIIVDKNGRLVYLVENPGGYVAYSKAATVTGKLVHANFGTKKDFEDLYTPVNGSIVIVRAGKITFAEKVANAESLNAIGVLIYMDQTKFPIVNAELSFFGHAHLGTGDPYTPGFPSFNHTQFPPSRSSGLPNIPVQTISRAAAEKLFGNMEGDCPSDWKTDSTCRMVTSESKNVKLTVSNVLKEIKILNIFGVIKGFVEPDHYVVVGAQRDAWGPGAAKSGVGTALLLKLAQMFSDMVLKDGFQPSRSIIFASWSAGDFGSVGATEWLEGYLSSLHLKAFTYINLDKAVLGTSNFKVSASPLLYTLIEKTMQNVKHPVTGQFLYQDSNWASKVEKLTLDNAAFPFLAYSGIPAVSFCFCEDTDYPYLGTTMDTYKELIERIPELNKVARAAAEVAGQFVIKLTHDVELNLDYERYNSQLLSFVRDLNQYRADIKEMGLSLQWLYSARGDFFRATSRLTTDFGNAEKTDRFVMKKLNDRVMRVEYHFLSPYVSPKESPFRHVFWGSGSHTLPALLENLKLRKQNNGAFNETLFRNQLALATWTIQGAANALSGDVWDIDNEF
T3 sequence (P02786 89-760): as above

Row | Binder | RLU [1] [RLU] | RLU [2] [RLU] | hCD71:HSA [3] | Cyno apical domain:HSA [4] | RLU [5] [RLU] | RLU [6] [RLU] | hCD71:HSA [7] | Apical domain:HSA [8]
1 | CD71-binding FN3 domain of SEQ ID NO: 120 (designed binder) MSLPAPKNLVVSRVTEDSARLSWTAPDAAFDSFEIAYQELSLWGEAIVLTVPGSERSYDLTGLKPGTEYWVQIGGVKGGEWSAPLSAIFTT | 4.26e+06 | 5.13e+06 | 443 | 534 |  |  |  | 
2 | CD71-binding FN3 domain of SEQ ID NO: 126 (designed binder) MSLPAPKNLVVSRVTEDSARLSWTAPDAVFDSFEIAYQELSLWGEAIVLTVPGSERSYDLTGLKPGTEYYVHIGGVKGGIWSSPLSAYFTT | 3.13e+06 | 5.27e+06 | 227 | 382 |  |  |  | 
3 | CD71-binding FN3 domain of SEQ ID NO: 144 (designed binder) MSLPAPKNLVVSRVTEDSARLSWTAPDAAFDSFEIGYFENLYLGEAIVLTVPGSERSYDLTSLKPGTEYWVQIGGVKGGNWSAPLSATFTT | 4.74e+06 | 5.3e+06 | 134 | 150 |  |  |  | 
4 | CD71-binding FN3 domain of SEQ ID NO: 131 (designed binder) MSLPAPKNLVVSRVTEDSARLSWTAPDAAFDSFEIAYFENDWAGEAIVLTVPGSERSYDLTGLKPGTEYVVFIGGVKGGDFSPPLSAIFTT | 3.35e+06 | 4.81e+06 | 101 | 145 |  |  |  | 
5 | CD71-binding FN3 domain of SEQ ID NO: 132 (designed binder) MSLPAPKNLVVSRVTEDSARLSWTAPDAAFDSFEIGYFENLYLGEAIVLTVPGSERSYDLTGLKPGTEYWVQIGGVKGVNWSAPLSAIFTT | 3.63e+06 | 5.15e+06 | 142 | 201 |  |  |  | 
6 | CD71-binding FN3 domain of SEQ ID NO: 150 (designed binder) MSLPAPKNLVVSRVTEDSARLSWTAPDAAFDSFDIGYFENSYAGEAIVLTVPGSERSYDLTGLKPGTEYYVSIAGVKGGRFSPPLSAIFTT | 3.49e+06 | 4.18e+06 | 98 | 118 |  |  |  | 
7 | CD71-binding FN3 domain of SEQ ID NO: 148 (designed binder) MSLPAPKNLVVSRVTEDSARLSWTAPDAAFDSFEIVYQENSAYGEAIVLTVPGSERSYDLTGLKPGTEYWVQIGGVKGGEWSAPLSAIFTT | 2.45e+06 | 4.72e+06 | 212 | 408 |  |  |  | 
8 | CD71-binding FN3 domain of SEQ ID NO: 124 (designed binder) MSLPAPKNLVVSRVIEDSARLSWTAPDAAFDSFEIGYFENLYLGEAIVLTVPGSERSYDLTGLKPGTEYWVQIGGVKGGNWSAPLSAIFTT | 5.01e+06 | 4.89e+06 | 43 | 42 |  |  |  | 
9 | CD71-binding FN3 domain of SEQ ID NO: 146 (designed binder) MSLPAPKNLVVSRVTEDSARLSWTAPDAAFDSFDIGYFENTYEGEAIVLTVPGSERSYDLTGLKPGTEYVVWIGGVKGGSYSSPLSAIFTT | 4.34e+06 | 4.96e+06 | 112 | 128 |  |  |  | 
10 | CD71-binding FN3 domain of SEQ ID NO: 149 (designed binder) MSLPAPKNLVVSRVTEDSARLSWTAPDAAFDSFDIGYFELRYYGEAIVLTVPGSERSYDLTGLKPGTEYWVSIGGVKGGTYSAPLSAIFTT | 3.77e+06 | 5e+06 | 342 | 455 |  |  |  | 
11 | CD71-binding FN3 domain of SEQ ID NO: 130 (designed binder) MSLPAPKNLVVSRVTEDSARLSWTAPDAAFDSFEIAYFERTWFGEAIVLTVPGSERSYDLTGLKPGTEYWVQIGGVKGGDWSAPLSAIFTT | 3.76e+06 | 5e+06 | 147 | 196 |  |  |  | 
12 | CD71-binding FN3 domain of SEQ ID NO: 139 (designed binder) MSLPAPKNLVVSRVTEDSARLSWTAPDAAFDSFEIGYFENLYLGEAIVLTVPGSERSYDLTGLKPGTEYWVQIGGVKGGAYSTPLSAIFTT | 3.7e+06 | 4.49e+06 | 409 | 496 |  |  |  | 
13 | CD71-binding FN3 domain of SEQ ID NO: 141 (designed binder) MSLPAPKNLVVSRVTEDSARLSWTAPDAAFDSFEIGYFENLYLGEAIVLTVPGSERSYDLTGLKPGTEYWVQIGGVKGGNWSAPLSAYFTT | 4.22e+06 | 5.4e+06 | 192 | 245 |  |  |  | 
14 | CD71-binding FN3 domain of SEQ ID NO: 151 (designed binder) MSLPAPKNLVVSRITEDSARLSWTAPDAAFDSFEIAYFETCRTGEAIVLTVPGSERSYDLTGLKPGTEYRVWIGGVKGGVWSRPLSAIVTT | 4.04e+06 | 5.1e+06 | 22 | 28 |  |  |  | 
15 | CD71-binding FN3 domain of SEQ ID NO: 122 (designed binder) MSLPAPKNLVVSRVTEDSARPSWTAPDAAFDSFEIGYFENLYLGEAIVLTVPGSERSYDLTGLKPGTEYYVHIGGVKGGIWSSPLSAYFTT | 5.5e+06 | 4.2e+06 | 105 | 80 |  |  |  | 
16 | CD71-binding FN3 domain of SEQ ID NO: 119 (designed binder) MSLPAPKNLVVSRVTEDSARLSWTAPDAAFDSFFIGYLEPQPPGEAIELYVPGSERSYDLTGLKPGTEYNVTIQGVKGGFPSDPLVAFFTT | 7.04e+06 | 6.29e+06 | 441 | 394 |  |  |  | 

Next, values leading:

Row | RLU [1] [RLU] | RLU [2] [RLU] | hCD71:HSA [3] | Cyno apical domain:HSA [4] | RLU [5] [RLU] | RLU [6] [RLU] | hCD71:HSA [7] | Apical domain:HSA [8] | Binder
17 |  |  |  |  | 2.99e+06 | 3.26e+06 | 141 | 154 | CD71-binding FN3 domain of SEQ ID NO: 536 (designed binder) MLPAPKNLVVSRVTEDSARLSWTAPDAAFDSFDIGYTETVSFGEAIVLTVPGSERSYDLTGLKPGTEYIVKILGVKGGFASFPLSAIFTT
18 |  |  |  |  | 3.39e+06 | 5.21e+06 | 263 | 404 | CD71-binding FN3 domain of SEQ ID NO: 510 (designed binder) MLPAPKNLVVSRVTEDSARLSWTAPDAAFDSFFIAYGESPESGEAIVLTVPGSERSYDLTGLKPGTEYLVWIAGVKGGYYSDPLSAIFTT
19 |  |  |  |  | 1.45e+06 | 4.59e+06 | 62 | 197 | CD71-binding FN3 domain of SEQ ID NO: 532 (designed binder) MLPAPKNLVVSRVTEDSARLSWTAPDAAFDSFDINYDELSGEGEAIALFVPGSERSYDLTGLKPGTEYWVSIGGVKGGRFSEPLYARFTT
20 |  |  |  |  | 2.35e+06 | 2.26e+06 | 150 | 145 | CD71-binding FN3 domain of SEQ ID NO: 503 (designed binder) MLPAPKNLVVSRVTEDSARLSWTAPDAAFDSFEISYFETSWHGEAIVLTVLGSERSYDLTGLKPGTEYRVYIGGVKGGSWSQPLSAIFTT
21 |  |  |  |  | 1.64e+06 | 4.74e+06 | 39 | 112 | CD71-binding FN3 domain of SEQ ID NO: 506 (designed binder) MLPAPKNLVVSRVTEDSARLSWTAPDAAFDSFEIGYWENAYKGEAIVLTVPGSERSYDLTGLKPGTEYVVFIGGVKGGVWSVPLSAISTT
22 |  |  |  |  | 1.6e+06 | 4.16e+06 | 226 | 586 | CD71-binding FN3 domain of SEQ ID NO: 531 (designed binder) MLPAPKNLVVSRVTEDSARLSWTAPDAAFDSFEIGYFEYSYYGEAIVLTVPGSERSYDLTGLKPGTEYRVYIGGVKGGGWSRPLSAIFTT
23 |  |  |  |  | 2.42e+06 | 5.14e+06 | 23 | 50 | CD71-binding FN3 domain of SEQ ID NO: 537 (designed binder) MLPAPKNLVVSRVTEDSARLSWTAPDAAFDSFEIGYFENLYLGEAIVLTVPGSERSYDLTGLKPGTEYWVQIGGVKGGNWSAPLSAIFTT
24 |  |  |  |  | 3.24e+06 | 5.24e+06 | 156 | 253 | CD71-binding FN3 domain of SEQ ID NO: 519 (designed binder) MLPAPKNLVVSRVTEDSARLSWTAPDAAFDSFPIAYPEHLPPGEAIVLTVPGSERSYDLTGLKPGTEYPVNIRGVKGGFVSFPLSAIFTT
